# Assay results published in PMC6526471.
# Biological target: Patched (Ptc) receptor on C3H10T1/2 cells (mouse (endogenous in C3H10T1/2)) (UniProt Q61115)
# Sequence of UniProt Q61115 (Q61115 whole entry): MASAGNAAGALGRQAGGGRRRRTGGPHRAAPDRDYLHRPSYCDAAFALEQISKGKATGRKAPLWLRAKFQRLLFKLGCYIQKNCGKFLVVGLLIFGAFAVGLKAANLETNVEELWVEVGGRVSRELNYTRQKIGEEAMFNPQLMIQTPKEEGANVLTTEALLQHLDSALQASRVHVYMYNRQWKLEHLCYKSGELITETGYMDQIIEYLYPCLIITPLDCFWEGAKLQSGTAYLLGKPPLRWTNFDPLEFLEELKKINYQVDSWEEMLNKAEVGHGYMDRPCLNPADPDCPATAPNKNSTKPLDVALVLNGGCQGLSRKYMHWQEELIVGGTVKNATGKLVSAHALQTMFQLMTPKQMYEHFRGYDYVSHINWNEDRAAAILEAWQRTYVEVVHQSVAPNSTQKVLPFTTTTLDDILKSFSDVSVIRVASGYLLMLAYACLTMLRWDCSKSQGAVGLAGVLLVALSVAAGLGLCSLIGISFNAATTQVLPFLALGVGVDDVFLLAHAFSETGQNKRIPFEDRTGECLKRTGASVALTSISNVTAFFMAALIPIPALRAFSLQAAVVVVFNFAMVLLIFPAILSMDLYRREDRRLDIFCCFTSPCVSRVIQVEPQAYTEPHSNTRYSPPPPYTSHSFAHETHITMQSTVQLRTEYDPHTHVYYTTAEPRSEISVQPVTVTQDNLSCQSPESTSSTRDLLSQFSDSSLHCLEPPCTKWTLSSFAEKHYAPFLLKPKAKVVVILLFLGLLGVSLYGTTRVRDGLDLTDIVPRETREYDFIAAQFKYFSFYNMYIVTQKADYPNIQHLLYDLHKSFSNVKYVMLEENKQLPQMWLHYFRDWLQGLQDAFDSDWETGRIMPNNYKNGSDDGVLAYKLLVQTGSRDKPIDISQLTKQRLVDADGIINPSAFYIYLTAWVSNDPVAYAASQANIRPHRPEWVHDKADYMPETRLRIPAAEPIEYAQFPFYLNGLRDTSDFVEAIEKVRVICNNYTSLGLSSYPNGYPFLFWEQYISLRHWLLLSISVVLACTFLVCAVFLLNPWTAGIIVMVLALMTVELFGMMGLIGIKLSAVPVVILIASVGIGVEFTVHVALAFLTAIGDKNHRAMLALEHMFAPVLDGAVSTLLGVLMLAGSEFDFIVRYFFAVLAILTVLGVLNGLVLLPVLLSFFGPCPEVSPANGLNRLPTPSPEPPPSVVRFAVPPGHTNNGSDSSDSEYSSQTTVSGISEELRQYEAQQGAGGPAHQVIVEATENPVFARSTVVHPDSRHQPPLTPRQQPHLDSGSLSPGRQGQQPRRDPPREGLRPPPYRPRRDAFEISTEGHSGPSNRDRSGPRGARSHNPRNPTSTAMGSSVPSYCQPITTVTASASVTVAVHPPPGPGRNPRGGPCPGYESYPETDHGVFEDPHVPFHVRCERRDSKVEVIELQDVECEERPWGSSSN
substance,measurement,value
"Sonic hedgehog (Shh), soluble form released from Shh-expressing Panc1 cells (ligand)","Shh-induced C3H10T1/2 differentiation with 5 ug/mL HSI (0.7 sulfates/disaccharide), relative to no HS/heparin (100%)",70%
same,"Shh-induced C3H10T1/2 differentiation with 5 ug/mL HSII (1.2 sulfates/disaccharide), relative to no HS/heparin (100%)",58%
same,"Shh-induced C3H10T1/2 differentiation with 5 ug/mL HSIII (1.4 sulfates/disaccharide), relative to no HS/heparin (100%)",38%
same,"Shh-induced C3H10T1/2 differentiation with 5 ug/mL dp30 heparin, relative to no HS/heparin (100%)",26%
same,"Shh-induced C3H10T1/2 differentiation with 5 ug/mL heparin, relative to no HS/heparin (100%)",27%
